Test results as given in patent publication US20260116991A1 (HAINAN SIMCERE ZAIMING PHARMACEUTICAL, published 2026).
Residue numbers refer to the chain shown, from its start.

B1: F1.136.7 (antibody, human IgG1, kappa, V domains shown)
VH: EVQLQQSGPVMVKPGPSVKISCQTSGFTFTDYYIHWVKQSHGKSLEWIGLVFPYDGGTNYNQKFKDKATLTLDTSSSTAYMELNSLTSEDSAVYYCARAGGFSYALNYWGQGTSVTVSS
VL: DIQMTQSPSSLSASLGGKVTITCKASQDINNYIAWYQHKPGKGPRLLIHFTSTLQPGIPSRFSGSGSGRDYSFSISNLEPEDIATYYCLQYDNLLLTFGAGTKLELKR
notes: Human-murine chimeric antibody
B2: F1.118.4 (antibody, human IgG1, kappa, V domains shown)
VH: QVQLQQSGAELAKPGASVKLSCKASGYSFTSYWIHWVKQRPGQGLEWIGYINPSSGYTKYNQKFKDKATLTADKSSSTAYMQLSSLTYEDSAVYYCARFGSSSFYFDYWGQGTTLTVSS
VL: DIVLTQSPASLAVSLGQRATISCRASQSVSSSSYSYMHWYQQKPGQPPKLLIKYASNLDSGVPARFSGSGSGTDFTLNIHPVEEEDTATYYCQHSWEIPAFGGGTKLEIKR
notes: as for B1
B3: F1.111.11 (antibody, human IgG1, kappa, V domains shown)
VH: EVQLQQSGPELVKPGASVKISCKASGYTFTDYYMNWVKQSHGKSLEWIGDIYPNNGDTTYNQRFKGKATLTVDKSSSTAYMELRSLASEDSAVYYCACPYNNPFGYWGQGTLVTVSA
VL: DVVMTQTPLSLPVSLGDQASISCRSSQSLVHSNGNTYLHWYLQKPGQSPKLLIYKVSNRFSGVPDRFSGSGSGTDFTLKISRVEAEDLGVYFCSQSTHVPWTFGGGTKLEIKR
notes: as for B1
B4: F1.115.8 (antibody, human IgG1, kappa, V domains shown)
VH: EVQLQQSGPELVKPGASVKMSCKASGYTFTEYYMHWVKQSHGKSLEWIGYIYPNNGGNGYNQKFKGKATLTVDKSSSTAYMGLRSLTSEDSAVYYCVRGYYSNWYFDVWGTGTTVTVSS
VL: B3 VL with V3L, L29I, N35K, H39E, F92Y, S94F, S96G, T97S, W101F, G105S
notes: as for B1
B5: F3.54.12 (antibody, human IgG1, kappa, V domains shown)
VH: QVQLQQSGAELVRPGASVKLSCKASGYTFTDYEMHWVKQTPVHGLEWIGAIDPETGNTAYIQKFKGKATLTTDKSSSTAYMELRSLTSEDSAVYYCTRFYSYSHWGQGTTLTVSS
VL: B3 VL with G71S, S96N, W101P
notes: as for B1
B6: F3.38.7 (antibody, human IgG1, kappa, V domains shown)
VH: QVQLQQSGAELVRPGASVKLSCKASGYTFTDYEIHWVKQTPVLGLEWIGAIDPKTGNTAYNQKFMGKATLTADKSSTTAYMDLRSLTSEDSAVYYCTRYFSFAYWGQGTLVTVSA
VL: B3 VL with V3L, S28T, L29F, H39Q, F92Y, S94F, S96G, T97S, W101Y, G105S
notes: as for B1
B7: F1.110.24 (antibody, human IgG1, kappa, V domains shown)
VH: EVKLVESGGGLVQPGGSLKLSCAASGFTFSDFYMYWVRQTPEKRLEWVAFISNGGGSTYYPDTVKGRFTISRDNVKNTLYLQMSRLKSEDTAMYYCARPDTSWFAYWGQGSLVTVSA
VL: DIQMTQTTSSLSASLGDRVTISCRASQDIDNYLNWYQQKPDGTVKVLISYTSRLHSGVPSRFSGSGSGTDYSLTISNLEQEDIATYFCQQGNTLPWTFGGGTKLEIKR
notes: as for B1
B8: F2.55.11 (antibody, human IgG1, kappa, V domains shown)
VH: EVKLVESGGGLVKPGGSLKLSCAASGLTFSTCTMSWVRQTPAKRLEWVATISSGGGNTYYPDSVKGRFTISRDNARNTLYLQMSSLRSEDTAMYYCVRLYYDGSPYAMDYWGQGTSVTVSS
VL: B7 VL with D30S, Y32H, V46L, S49Y, G91D, N92S, T93K, L94P, W96P, G100S
notes: as for B1
B9: F2.154.1 (antibody, human IgG1, kappa, V domains shown)
VH: QVQLQQSGAELVRPGASVKLSCKASGYRFTDYEMHWVKQTPVHGLEWIGTIDPETGNTAYTQKFMDKATLTADKSSSTAYMELRSLTSEDSAVYYCTRGYSFTYWGQGTLATVSA
VL: DVLMTQTPLSLPVSLGDQASISCRSSQNIVHSNGNTYLQWYLQKPGQSPKLLIFKVSNRFSGVPDRFSGSGSGTDFTLKISRVEAEDLGVYYCFQGSHVPFTFGTGTKLEIKR
notes: as for B1
B10: F3.81.19 (antibody, human IgG1, kappa, V domains shown)
VH: B9 VH with R28T, T61N, M65K, D66G, G99P, F102L, A111V
VL: B9 VL with M4L, N28S, I29F, N35D, F54Y, F101Y, T105S
notes: as for B1
B11: F1.120.16 (antibody, human IgG1, kappa, V domains shown)
VH: EFQLQQSGPELVKPGASVKISCKASGYSFTDYNMNWVKQSNGKSLEWIGLIHPKFSVTSYNRKFKGKATLTVDQSSSTAYMQLNSLTSEDSAVYYCARWAGDYFDYWGQGTTLTVSS
VL: DIVLTQSPATLSVTPGDSVSLSCRASQSISNNLHWYQQKSHESPRLLIKYASQSISGIPSRFSGSGSGTDFTLTINSVETEDFGMYFCQQSNSWPQTFGGGTKLEIKR
notes: as for B1
B12: F1.145.22 (antibody, human IgG1, kappa, V domains shown)
VH: QVQLQQSGTDLARPGASVKLSCKASGYTFTSFGISWVKQRTGQGLEWIGEIYPRSGSPYYNEKFTGKATLTADKSSSTAYMELRSLTSEDSAVYFCAKDFGSSYVFDYWGQGTALTVSS
VL: DIQMTQSPASLSASVGETVTITCRASENIYSYLTWYQQKQGKSPQLLVYNAKTLAEGVPSRFSGSGSGTQFSLKINSLQPEDFGTYYCQHHYGTPPTFGTGTKLDLKR
notes: as for B1

Biological target: T1, human GPC3-His protein (human, UniProt P51654 25-559)
T1 construct: also called human GPC3 protein; not shown: His tag
Assay: SPR, antibody captured on Protein A chip, human GPC3-His analyte;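 note: measured at 25 °C flow cell, human GPC3-His injected at five concentrations up to 200 nM, 240 s association, up to 600 s dissociation, double-referenced, fitted to Langmuir 1:1 model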

Kd [nM]	koff [s⁻¹]	kon [M⁻¹ s⁻¹]	Binder
0.837	7.03e-05	84100	B1
0.472	0.000118	251000	B2
6.75	0.000445	65800	B3
1.4	0.00115	820000	B4
4.09	0.00112	275000	B5
0.997	0.000361	362000	B6
2.5	0.000362	145000	B7
7.77	0.000443	57000	B8
1.21	0.000563	466000	B9
0.545	0.000231	424000	B10
8.03	0.000629	78400	B11
0.754	0.000164	218000	B12

Biological target: T2, monkey GPC3 on HEK293T-monkey GPC3 cells (monkey)
T2 construct: whole, on cells
Assay: FACS on HEK293T-monkey GPC3 cells;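 note: flow cytometry binding of test antibodies to the cells, read as mean fluorescence intensity, with half-maximal concentration taken from fitted curves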
Experimental: The desired cells were expanded to a logarithmic growth phase in a T-75 cell culture flask, the medium was removed by pipetting, and the cells were washed twice with a PBS buffer, and digested with trypsin. Then a complete medium was added to stop the digestion, and the cells were blown into a single cell suspension. After counting, the cells were centrifuged, and the cell pellet was resuspended with an FACS buffer (PBS+2% fetal bovine serum) to 2×10⁶ cells/mL. The cell resuspension solution was added to a 96-well FACS reaction plate at 50 μl/well, and a chimeric antibody sample to be tested was added at 50 μl/well for incubation at 4° C. for 1 h. […] After the plate was centrifuged and washed 3 times with a PBS buffer, 100 μl of the resulting solution was assayed and analyzed by FACS (FACS Canto™, purchased from BD Biosciences). Data analysis was performed by software (FlowJo) to obtain the mean fluorescence intensity (MFI) of the cells. Then, analysis was performed by software (GraphPad Prism8), data were fitted, and EC₅₀ values were calculated.

EC50 [nM]	Max MFI [MFI]	Binder
1.94	6480	B1
0.32	6220	B2
0.42	4450	B3
0.33	6390	B4
0.72	115000	B5
0.85	110000	B6
0.42	5560	B7
0.31	3530	B8
0.41	12400	B9
2.58	106000	B10
0.25	5540	B11
0.69	6050	B12

Biological target: T3, monkey GPC3-His protein (monkey)
T3 construct: Bought recombinant protein; also called monkey GPC3 protein
Assay: SPR, antibody captured on Protein A chip, monkey GPC3-His analyte;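 note: run at 25 °C with 240 s association and up to 600 s dissociation, double-referenced, kinetics fitted to a 1:1 Langmuir binding model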

Kd [nM]	koff [s⁻¹]	kon [M⁻¹ s⁻¹]	Binder
0.183	2.88e-05	158000	B1
0.226	0.000102	453000	B2
4.67	0.000447	95800	B3
1.05	0.00145	1.38e+06	B4
2.17	0.00117	541000	B5
0.725	0.000386	532000	B6
1.38	0.000342	248000	B7
5.24	0.000434	82800	B8
0.706	0.000504	713000	B9
0.415	0.000261	631000	B10
4.44	0.000639	144000	B11
0.525	0.000164	311000	B12

Biological target: T3, monkey GPC3-His protein
Assay: ELISA, monkey GPC3-His coated;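 note: Plate-coated antigen at 1 µg/mL, antibody binding 2 h at 37 °C, detected with HRP-labeled secondary antibody and TMB, absorbance at 450 nm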

OD450 at 0.0001 nM [OD450]	OD450 at 0.001 nM [OD450]	OD450 at 0.01 nM [OD450]	OD450 at 0.1 nM [OD450]	OD450 at 1 nM [OD450]	OD450 at 10 nM [OD450]	OD450 at 100 nM [OD450]	Binder
0.05	0.05	0.1	0.62	1.33	1.96	1.96	B1
0.05	0.08	0.28	1.43	2.21	2.32	2.14	B2
0.06	0.11	0.53	1.91	2.57	2.62	2.66	B3
0.05	0.07	0.27	1.33	2.14	2.36	2.26	B4
0.08	0.1	0.41	1.57	2.21	2.32	2.76	B5
0.06	0.1	0.42	1.69	2.37	2.58	3.01	B6
0.05	0.05	0.06	0.29	0.31	0.47	0.41	B7
0.05	0.1	0.49	1.76	2.3	2.54	2.23	B8
0.05	0.1	0.46	1.69	2.38	2.49	2.24	B9
0.05	0.06	0.16	0.62	1.96	2.55	2.49	B10
0.07	0.07	0.26	1.11	1.91	2.21	2.14	B11
0.05	0.07	0.25	1.23	2.17	2.39	2.4	B12
